Drawing on patent US9353421, “Aptamers that are specific for immunoglobulin-binding cell wall proteins” (Helmholtz-Zentrum für Umweltforschung GmbH-UFZ), this text covers binding result and Kd for 4 molecules.

Data set [1] deals with T1, Protein A (native, biotinylated) (Staphylococcus aureus, UniProt P02976 P02976:37-485). As to the kind of experiment: pulldown; magnetic bead binding; retained and even improved vs full length; 10 mM MgCl2, 21 C. To be noted: tags: biotin, immobilized on streptavidin Dynabeads M-280; Sigma-Aldrich P2165; label: fluorescein. The protocol:
(§1) The binding experiments were carried out under the SELEX conditions. 2.5-3 ×10^7 target-modified magnetic beads and ~55 pmol of fluorescein-labeled aptamer ssDNA in binding buffer (100 mM NaCl, 20 mM Tris-HCl, pH 7.6, 10 mM MgCl_2, 5 mM KCl, 1 mM CaCl_2) were employed for each experiment. The target-modified magnetic beads were prepared as a preliminary to the binding experiments, wherein Dynabeads® M-280 Streptavidin (Invitrogen, UK) were used in order to immobilize native, biotinylated protein A from *Staphylococcus aureus* (P2165, Sigma-Aldrich, Germany). Before each binding reaction the target-modified magnetic beads were washed several times in binding buffer and the aptamer ssDNA was thermally equilibrated by incubation at 90° C. for 8 min, on ice for 10 min and then converted to RT for ~5 min. The prepared aptamer ssDNA and the washed target-modified magnetic beads were then brought together for binding and incubated for 30 min at 21° C., while shaking. The non-bound ssDNA was removed and the binding complexes were washed several times in binding buffer. Thereafter, the target-bound ssDNA was eluted by means of heat by incubation of the binding complexes in binding buffer at 95° C. for 10 min, while shaking. […] The amount of ssDNA eluted could be quantified on the basis of the fluorescein labeling of the aptamer ssDNA and by means of a calibration curve. […]

For another data set, the target named is Protein A (recombinant) (UniProt P02976 P02976:37-485). As to the kind of experiment: SPR; steady-state avidity (bivalent analyte); 100 mM NaCl, 20 mM Tris-HCl pH 7.6, 10 mM MgCl2, 5 mM KCl, 1 mM CaCl2, 0.005% SP20. To be noted: tags: Sigma-Aldrich P7837; label: 3'-biotin. From the text: (§2) These changes are emitted as a measurable signal, expressed in resonance units (RU), and are proportional to the amount of target bound on the sensor surface. In the experiments presented here, non-specific ssDNA (SELEX library, 3'-biotinylated) was immobilized in the reference cell and ssDNA of the aptamer PA#2/8 (3'-biotinylated) was immobilized in the measurement cell. The target solution, comprising recombinant protein A (P7837, Sigma-Aldrich, Germany) or native protein A (P3838, Sigma-Aldrich, Germany) in binding buffer (100 mM NaCl, 20 mM Tris-HCl, pH 7.6, 10 mM MgCl_2, 5 mM KCl, 1 mM CaCl_2) with 0.005% SP20, was passed over the prepared sensor surfaces at a flow rate of 10 µl/min. […] The sensorgrams (FIG. 6, 8) show the double-referenced signal curve (measurement cell minus reference cell and buffer reference) during the binding and dissociation phase at different target concentrations in a range of 10 nM-5,000 nM protein A. During such a measurement series the 1,000 nM concentration of protein A was measured 3 times as a control. […]
Chain of Protein A (recombinant) (P02976 37-485, one chain of several): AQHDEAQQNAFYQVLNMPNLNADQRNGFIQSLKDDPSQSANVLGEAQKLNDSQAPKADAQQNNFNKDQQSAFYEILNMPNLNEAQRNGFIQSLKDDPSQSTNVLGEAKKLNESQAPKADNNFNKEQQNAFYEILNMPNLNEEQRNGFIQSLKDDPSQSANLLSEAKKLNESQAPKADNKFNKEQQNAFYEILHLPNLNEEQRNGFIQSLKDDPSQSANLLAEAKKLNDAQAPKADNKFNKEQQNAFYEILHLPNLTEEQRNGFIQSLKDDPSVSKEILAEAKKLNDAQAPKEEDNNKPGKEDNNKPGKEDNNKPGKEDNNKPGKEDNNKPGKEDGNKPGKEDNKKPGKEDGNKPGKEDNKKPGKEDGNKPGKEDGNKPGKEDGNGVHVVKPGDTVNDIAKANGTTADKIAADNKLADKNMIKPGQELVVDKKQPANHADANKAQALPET
(§3) From the binding data at the end of each binding phase with the different protein A concentrations a saturation curve was plotted (FIG. 7, 9) and the steady state affinity of the aptamer PA#2/8 for protein A was calculated from this. […]
On the technique in general: SPR reads the build-up and loss of mass on a sensor chip optically.

The next data set deals with Protein A (native) (UniProt P02976 P02976:37-485). The description is as above. To be noted: tags: Sigma-Aldrich P3838; label: 3'-biotin.
Chain of Protein A (native) (P02976 37-485, one chain of several): as above
Description: as §2, §3

Data set [2] has as its target T1, Protein A (native, biotinylated). As to the kind of experiment: pulldown; magnetic bead binding; complete loss of binding; 10 mM MgCl2, 21 C. To be noted: tags: biotin, immobilized on streptavidin Dynabeads M-280; Sigma-Aldrich P2165; label: fluorescein. The protocol:
as §1

Data set [3] has the same target. The data set is described as follows: pulldown; magnetic bead binding; negative result; 10 mM MgCl2, 21 C. To be noted: tags: biotin, immobilized on streptavidin Dynabeads M-280; Sigma-Aldrich P2165; label: fluorescein. The protocol:
as §1

T1 sequence (P02976 37-485, one chain of several): as above

B1: PA#2/8 [A1-58] (ssDNA)
DNA: ATACCAGCTTATTCAATTAGCAACATGAGGGGGATAGAGGGGGTGGGTTCTCTCGGCT
As to B1, the binding result in data set [1] was “binds”.

B2: PA#2/8 (3'-biotin) (ssDNA)
DNA: ATACCAGCTTATTCAATTAGCAACATGAGGGGGATAGAGGGGGTGGGTTCTCTCGGCTACAATCGTAATCAGTTAG
In the case of B2, the Kd was 188 nM in the data set with Protein A (recombinant) and 75.3 nM with Protein A (native).

B3: PA#2/8 [A19-76] (ssDNA)
DNA: AGCAACATGAGGGGGATAGAGGGGGTGGGTTCTCTCGGCTACAATCGTAATCAGTTAG
With B3, in data set [2], the binding result is “no binding”.

AGCAACATGAGGGGGATAGAGGGGGTGGGTTCTCTCGGCT (ssDNA) [PA#2/8CR40]: the binding result in data set [3] was “no binding”.
